According to article PMC10273338:

Target: T1, HspB8, Q9UJY1
T1 chain: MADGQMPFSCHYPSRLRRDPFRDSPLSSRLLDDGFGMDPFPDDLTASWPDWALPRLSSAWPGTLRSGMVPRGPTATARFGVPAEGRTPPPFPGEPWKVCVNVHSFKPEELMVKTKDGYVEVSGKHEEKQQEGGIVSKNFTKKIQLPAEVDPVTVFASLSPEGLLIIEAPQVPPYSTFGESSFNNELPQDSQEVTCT
Assay: SPR; BIACORE X; HspB8 amine-coupled to a CM5 chip (7400 RU); running buffer 10 mM HEPES pH 7.4, 150 mM NaCl, 3 mM EDTA, 0.005% P20; 10 uL/min; Langmuir 1:1 fit
Conditions: remark: other sources report otherwise

Ka: 5.2e+06 M⁻¹
Kd: 190 nM
koff: 0.00048 s⁻¹
kon: 2500 M⁻¹ s⁻¹
B1: HspB8, Q9UJY1 1-196 (natural protein)
chain: T1 chain
